Reference: PMC10397247
Blank lines part the entries; values can stand above or below the binder they belong to.

Assays:
APC5383-AA = target: T1, APC5383-AA; experiment: two-hybrid library CCmax; settings: mean of both orientations;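 further: natural log of median RNA to DNA barcode read ratio; higher means stronger binding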
T1 chain: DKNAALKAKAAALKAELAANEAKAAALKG

APC8910-AA = target: T2, APC8910-AA; experiment: two-hybrid library CCmax; settings: mean of both orientations;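 further: natural log of median RNA to DNA barcode read ratio; higher means stronger binding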
T2 chain: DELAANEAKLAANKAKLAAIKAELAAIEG

APC4264-AA = target: T3, APC4264-AA; experiment: two-hybrid library CCmax; settings: mean of both orientations;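 further: natural log of median RNA to DNA barcode read ratio; higher means stronger binding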
T3 chain: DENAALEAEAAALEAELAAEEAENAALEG

APC9319-AA = target: T4, APC9319-AA; experiment: two-hybrid library CCmax; settings: mean of both orientations;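 further: natural log of median RNA to DNA barcode read ratio; higher means stronger binding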
T4 chain: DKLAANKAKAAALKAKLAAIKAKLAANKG

4H807-AA = target: T5, 4H807-AA; experiment: two-hybrid library CCmax; settings: mean of both orientations
T5 chain: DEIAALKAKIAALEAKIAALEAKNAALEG

APC2405-AA = target: T6, APC2405-AA; experiment: two-hybrid library CCmax; settings: mean of both orientations
T6 chain: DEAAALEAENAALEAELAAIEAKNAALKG

APC4436-AA = target: T7, APC4436-AA; experiment: two-hybrid library CCmax; settings: mean of both orientations
T7 chain: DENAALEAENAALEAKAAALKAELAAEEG

APC4011-AA = target: T8, APC4011-AA; experiment: two-hybrid library CCmax; settings: mean of both orientations
T8 chain: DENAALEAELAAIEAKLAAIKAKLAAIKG

4H716-AA = target: T9, 4H716-AA; experiment: two-hybrid library CCmax
T9 chain: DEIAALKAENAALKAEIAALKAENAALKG

APC232-AA = target: T10, APC232-AA; experiment: two-hybrid library CCmax; settings: mean of both orientations
T10 chain: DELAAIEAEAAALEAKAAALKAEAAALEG

APC1434-AA = target: T11, APC1434-AA; experiment: two-hybrid library CCmax; settings: mean of both orientations
T11 chain: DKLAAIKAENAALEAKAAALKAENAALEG

APC6108-AA = target: T12, APC6108-AA; experiment: two-hybrid library CCmax; settings: mean of both orientations
T12 chain: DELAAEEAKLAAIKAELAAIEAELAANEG

4H733-AA = target: T13, 4H733-AA; experiment: two-hybrid library CCmax; settings: mean of both orientations
T13 chain: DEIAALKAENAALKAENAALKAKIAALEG

APC9096-AA = target: T14, APC9096-AA; experiment: two-hybrid library CCmax; settings: mean of both orientations
T14 chain: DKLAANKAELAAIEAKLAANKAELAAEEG

APC8191-AA = target: T15, APC8191-AA; experiment: two-hybrid library CCmax; settings: mean of both orientations
T15 chain: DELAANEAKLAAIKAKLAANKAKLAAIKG

APC1015-AA = target: T16, APC1015-AA; experiment: two-hybrid library CCmax; settings: mean of both orientations
T16 chain: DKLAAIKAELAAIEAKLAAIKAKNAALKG

APC2237-AA = target: T17, APC2237-AA; experiment: two-hybrid library CCmax; settings: mean of both orientations
T17 chain: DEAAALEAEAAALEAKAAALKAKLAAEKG

APC7099-AA = target: T18, APC7099-AA; experiment: two-hybrid library CCmax; settings: mean of both orientations
T18 chain: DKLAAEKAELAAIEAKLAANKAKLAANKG

APC3645-AA = target: T19, APC3645-AA; experiment: two-hybrid library CCmax; settings: mean of both orientations
T19 chain: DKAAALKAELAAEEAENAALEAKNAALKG

P6A-bS = target: T20, P6A-bS; experiment: two-hybrid library CCNG1
T20 chain: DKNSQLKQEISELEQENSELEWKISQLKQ

P8A-bS = target: T21, P8A-bS; experiment: two-hybrid library CCNG1
T21 chain: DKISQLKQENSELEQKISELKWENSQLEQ

P5A-bS = target: T22, P5A-bS; experiment: two-hybrid library CCNG1
T22 chain: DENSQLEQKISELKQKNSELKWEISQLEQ

P9A-bS = target: T23, P9A-bS; experiment: two-hybrid library CCNG1
T23 chain: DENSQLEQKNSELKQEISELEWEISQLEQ

P7A-bS = target: T24, P7A-bS; experiment: two-hybrid library CCNG1
T24 chain: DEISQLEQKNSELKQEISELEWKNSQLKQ

P4A-bS = target: T25, P4A-bS; experiment: two-hybrid library CCNG1
T25 chain: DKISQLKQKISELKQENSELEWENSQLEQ

interaction score (APC5383-AA): -1.79
interaction score (APC8910-AA): -1.89
interaction score (APC4264-AA): -1.35
interaction score (APC9319-AA): -1.79
interaction score (4H807-AA): -1.6
interaction score (APC2405-AA): -1
interaction score (APC4436-AA): -1.65
interaction score (APC4011-AA): -1.44
interaction score (4H716-AA): 1.49
interaction score (APC232-AA): -1.48
interaction score (APC1434-AA): -1.53
interaction score (APC6108-AA): -1.47
interaction score (4H733-AA): -1.28
interaction score (APC9096-AA): -1.43
interaction score (APC8191-AA): -1.36
interaction score (APC1015-AA): -1.65
interaction score (APC2237-AA): -1.74
interaction score (APC7099-AA): -1.6
interaction score (APC3645-AA): -1.45
B1: 4H716-AA (peptide)
chain: DEIAALKAENAALKAEIAALKAENAALKG

interaction score (P6A-bS): -1.51
interaction score (P8A-bS): -0.866
interaction score (P5A-bS): -0.436
interaction score (P9A-bS): -2
interaction score (P7A-bS): -0.905
interaction score (P4A-bS): -1.08
B2: P4A-bS (peptide)
chain: DKISQLKQKISELKQENSELEWENSQLEQ
